In paper PMC4460869:

Molecular target: GST-tagged BmAPN4 (silkworm aminopeptidase N 4) (Bombyx mori)

trypsin-activated parasporal crystal toxin (PC) from Bacillus bombysepticus (domain or fragment)
proportion of viable BmAPN4-expressing Sf9 cells after PC, counted in 50 optical fields: 15.8% | release of total intracellular LDH from BmAPN4-transfected Sf9 cells into the medium after trypsin-activated PC, 6 h; untransfected Sf9 cells not affected: 35.3%
